In patent US20180170984:

Biological target: APOBEC3A wild-type (Homo sapiens) (UniProt P31941)
Settings: 5-nitroindole at positions 12-14; deamination activity

Chain of APOBEC3A wild-type (Homo sapiens) (P31941 whole entry): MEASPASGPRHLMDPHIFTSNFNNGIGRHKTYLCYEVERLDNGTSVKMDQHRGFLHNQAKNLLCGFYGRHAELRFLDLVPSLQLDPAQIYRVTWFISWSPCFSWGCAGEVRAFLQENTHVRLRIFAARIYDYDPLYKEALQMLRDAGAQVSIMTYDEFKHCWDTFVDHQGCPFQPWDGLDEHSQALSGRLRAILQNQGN

In the case of “AAAAAAAAATCNNNAAAAAAA [+1 to +3 5-nitroindole substrate]”, the binding signal (fold lower than n3) is reported as 2.
